Bridge positions count the residues as written; N and C are the ends. Ends that are not written are not given here. FAM = 5(6)-carboxyfluorescein; Ahx = NCCCCCC(=O)O
Key:
[1] = molecular target: mouse CD206 on peritoneal cells from 4T1 tumor-bearing mice (mouse) (UniProt Q61830); test: flow cytometry on peritoneal cells of 4T1 tumor mice; 10 µg/mL antibody, then FAM-UNO at 0.5 µg/mL
recombinant mouse CD163 = recombinant mouse CD163 (mouse, UniProt Q2VLH6 39-1045, limits assumed); test: fluorescence anisotropy, in solution, kinetic mode
Sequence of recombinant mouse CD163 (Q2VLH6 39-1045 limits assumed): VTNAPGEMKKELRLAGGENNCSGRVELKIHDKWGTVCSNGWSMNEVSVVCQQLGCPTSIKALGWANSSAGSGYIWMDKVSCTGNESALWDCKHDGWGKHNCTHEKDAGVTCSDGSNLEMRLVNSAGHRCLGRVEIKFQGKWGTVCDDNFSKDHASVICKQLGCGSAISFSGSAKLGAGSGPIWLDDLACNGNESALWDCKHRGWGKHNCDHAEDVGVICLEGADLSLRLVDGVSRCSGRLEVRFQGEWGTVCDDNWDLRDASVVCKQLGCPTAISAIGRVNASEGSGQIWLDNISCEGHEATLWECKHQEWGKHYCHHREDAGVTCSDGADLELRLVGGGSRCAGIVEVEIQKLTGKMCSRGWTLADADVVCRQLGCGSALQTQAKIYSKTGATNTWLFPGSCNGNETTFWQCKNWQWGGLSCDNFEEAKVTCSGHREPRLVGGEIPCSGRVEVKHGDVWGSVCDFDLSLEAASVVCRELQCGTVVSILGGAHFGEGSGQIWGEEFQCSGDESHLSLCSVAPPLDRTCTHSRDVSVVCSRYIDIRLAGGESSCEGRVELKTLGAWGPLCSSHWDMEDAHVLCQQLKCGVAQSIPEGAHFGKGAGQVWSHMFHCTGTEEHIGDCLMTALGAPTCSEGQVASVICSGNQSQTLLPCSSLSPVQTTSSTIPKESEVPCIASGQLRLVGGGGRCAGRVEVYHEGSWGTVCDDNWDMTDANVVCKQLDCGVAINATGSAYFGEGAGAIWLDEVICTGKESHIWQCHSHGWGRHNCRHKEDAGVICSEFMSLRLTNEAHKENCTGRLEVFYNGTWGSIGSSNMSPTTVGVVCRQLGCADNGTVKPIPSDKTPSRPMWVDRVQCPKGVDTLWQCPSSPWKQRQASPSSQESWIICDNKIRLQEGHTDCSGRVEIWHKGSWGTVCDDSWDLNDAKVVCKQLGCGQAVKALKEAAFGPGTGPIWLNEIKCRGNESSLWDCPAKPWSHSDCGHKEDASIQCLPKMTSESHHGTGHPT

[2] = molecular target: T1, recombinant mouse macrophage mannose receptor rmMMR/CD206 (mouse, UniProt Q61830 20-1388, limits assumed); test: fluorescence anisotropy, in solution, 50 nM peptide and 1 µM protein
T1 construct: Bought recombinant protein; also called mouse recombinant CD206; MRC1
T1 sequence (looked up): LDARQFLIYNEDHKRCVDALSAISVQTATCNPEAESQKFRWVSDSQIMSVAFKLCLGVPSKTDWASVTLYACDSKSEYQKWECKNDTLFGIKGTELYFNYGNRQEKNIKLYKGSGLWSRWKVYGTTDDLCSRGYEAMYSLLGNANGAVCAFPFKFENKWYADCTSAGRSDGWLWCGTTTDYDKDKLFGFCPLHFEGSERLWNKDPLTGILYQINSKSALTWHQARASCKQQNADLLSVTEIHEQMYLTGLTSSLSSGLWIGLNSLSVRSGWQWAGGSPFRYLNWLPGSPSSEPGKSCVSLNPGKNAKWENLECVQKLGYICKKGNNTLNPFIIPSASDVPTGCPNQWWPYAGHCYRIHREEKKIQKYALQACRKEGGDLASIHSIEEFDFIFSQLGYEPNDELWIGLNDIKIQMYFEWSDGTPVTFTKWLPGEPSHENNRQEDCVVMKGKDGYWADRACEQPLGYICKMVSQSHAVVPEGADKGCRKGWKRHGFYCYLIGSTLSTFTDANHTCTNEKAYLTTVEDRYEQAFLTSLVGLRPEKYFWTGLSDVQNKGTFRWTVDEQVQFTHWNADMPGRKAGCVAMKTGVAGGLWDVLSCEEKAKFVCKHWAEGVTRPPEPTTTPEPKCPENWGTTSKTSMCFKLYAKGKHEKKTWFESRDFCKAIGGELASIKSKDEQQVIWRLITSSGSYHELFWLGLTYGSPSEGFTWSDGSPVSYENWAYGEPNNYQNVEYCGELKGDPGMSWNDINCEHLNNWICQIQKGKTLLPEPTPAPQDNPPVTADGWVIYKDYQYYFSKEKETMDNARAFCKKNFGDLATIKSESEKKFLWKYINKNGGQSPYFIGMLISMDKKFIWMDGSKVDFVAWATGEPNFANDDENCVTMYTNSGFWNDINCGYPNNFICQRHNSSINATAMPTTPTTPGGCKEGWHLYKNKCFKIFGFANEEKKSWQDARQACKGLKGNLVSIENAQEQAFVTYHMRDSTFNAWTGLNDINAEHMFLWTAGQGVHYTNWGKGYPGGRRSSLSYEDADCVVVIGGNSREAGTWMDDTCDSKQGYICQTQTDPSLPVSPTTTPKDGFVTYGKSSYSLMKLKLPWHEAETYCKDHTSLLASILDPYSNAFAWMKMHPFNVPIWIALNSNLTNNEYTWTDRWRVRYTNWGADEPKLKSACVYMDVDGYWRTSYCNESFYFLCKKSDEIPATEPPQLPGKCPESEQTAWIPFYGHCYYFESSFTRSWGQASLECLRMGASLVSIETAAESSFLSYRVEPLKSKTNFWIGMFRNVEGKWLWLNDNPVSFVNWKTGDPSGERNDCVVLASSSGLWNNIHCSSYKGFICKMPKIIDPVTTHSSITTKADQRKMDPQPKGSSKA
Experimental: In all experiments, FA signal measurements were done under pseudo first-order conditions with 50 nM singly labelled FAM peptides and 1 μM proteins. […] Assays were carried out in kinetic mode in a total volume of 30 μl at 25° C. on the PHERAstar (BMG Labtech, Germany) microplate reader using an optical module with excitation and emission filters of 485 nm (slit 10 nm) and 520 nm (slit 10 nm), respectively. Dual emission detection mode allows simultaneous recording of intensities that are parallel (l) and perpendicular (1) to the plane of excitation light. Sensitivities of channels (G factor) were corrected with gain adjustment of the photomultiplier tubes (PMTs) using fluorescein as a standard. The background fluorescence (receptor and buffer components in the absence of fluorescent ligand) was subtracted independently from all intensity channels. FA signals at time t after initiation of binding reaction was calculated as parameters r(t) from the equation: […]

[3] = molecular target: T2, recombinant human macrophage mannose receptor rhMMR/CD206 (human, UniProt P22897 19-1383, limits assumed); test: fluorescence anisotropy, in solution, kinetic mode
T2 construct: Bought recombinant protein; also called human recombinant CD206; hCD206
T2 sequence (looked up): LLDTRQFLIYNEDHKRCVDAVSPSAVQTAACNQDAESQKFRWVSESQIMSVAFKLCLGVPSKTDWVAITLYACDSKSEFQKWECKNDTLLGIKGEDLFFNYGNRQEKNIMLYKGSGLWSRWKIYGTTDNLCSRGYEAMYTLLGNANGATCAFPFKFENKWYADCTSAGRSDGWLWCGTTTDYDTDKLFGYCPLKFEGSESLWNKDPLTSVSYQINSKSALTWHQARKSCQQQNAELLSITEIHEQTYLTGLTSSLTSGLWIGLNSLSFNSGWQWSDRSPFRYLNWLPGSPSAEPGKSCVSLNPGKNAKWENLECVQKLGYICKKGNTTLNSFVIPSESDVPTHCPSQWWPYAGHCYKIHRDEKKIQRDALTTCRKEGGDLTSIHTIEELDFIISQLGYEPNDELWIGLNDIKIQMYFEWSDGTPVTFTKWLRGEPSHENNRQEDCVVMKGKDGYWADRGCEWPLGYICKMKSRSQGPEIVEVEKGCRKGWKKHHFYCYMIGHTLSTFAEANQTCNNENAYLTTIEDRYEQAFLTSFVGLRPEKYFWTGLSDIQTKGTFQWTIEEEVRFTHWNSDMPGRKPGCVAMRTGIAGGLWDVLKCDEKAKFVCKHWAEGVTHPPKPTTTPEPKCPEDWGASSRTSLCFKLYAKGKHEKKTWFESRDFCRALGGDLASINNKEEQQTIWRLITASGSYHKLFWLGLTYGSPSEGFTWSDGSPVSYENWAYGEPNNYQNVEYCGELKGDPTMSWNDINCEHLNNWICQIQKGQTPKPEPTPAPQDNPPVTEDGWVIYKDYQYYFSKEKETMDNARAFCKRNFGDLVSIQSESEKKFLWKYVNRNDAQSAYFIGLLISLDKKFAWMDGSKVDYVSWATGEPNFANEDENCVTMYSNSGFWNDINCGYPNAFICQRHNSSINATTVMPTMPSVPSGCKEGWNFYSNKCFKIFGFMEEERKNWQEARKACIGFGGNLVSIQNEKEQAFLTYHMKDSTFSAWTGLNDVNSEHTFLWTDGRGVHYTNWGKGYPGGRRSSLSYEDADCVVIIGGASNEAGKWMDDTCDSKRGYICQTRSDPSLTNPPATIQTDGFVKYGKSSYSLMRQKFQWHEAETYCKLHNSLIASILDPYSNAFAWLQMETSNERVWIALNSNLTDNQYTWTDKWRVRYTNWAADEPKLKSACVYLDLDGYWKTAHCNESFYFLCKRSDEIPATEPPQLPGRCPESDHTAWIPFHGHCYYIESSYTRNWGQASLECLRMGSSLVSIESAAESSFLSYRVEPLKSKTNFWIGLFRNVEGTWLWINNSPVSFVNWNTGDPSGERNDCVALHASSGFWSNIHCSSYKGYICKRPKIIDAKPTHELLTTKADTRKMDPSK

[4] = molecular target: T3, mouse CD206 on peritoneal cells from 4T1 tumor-bearing mice (mouse, UniProt Q61830 20-1456); test: flow cytometry on peritoneal cells, legend of FIG. 4D
T3 construct: whole, on cells; Primary cells that carry many other proteins; also called MRC1; mannose receptor
T3 sequence (looked up): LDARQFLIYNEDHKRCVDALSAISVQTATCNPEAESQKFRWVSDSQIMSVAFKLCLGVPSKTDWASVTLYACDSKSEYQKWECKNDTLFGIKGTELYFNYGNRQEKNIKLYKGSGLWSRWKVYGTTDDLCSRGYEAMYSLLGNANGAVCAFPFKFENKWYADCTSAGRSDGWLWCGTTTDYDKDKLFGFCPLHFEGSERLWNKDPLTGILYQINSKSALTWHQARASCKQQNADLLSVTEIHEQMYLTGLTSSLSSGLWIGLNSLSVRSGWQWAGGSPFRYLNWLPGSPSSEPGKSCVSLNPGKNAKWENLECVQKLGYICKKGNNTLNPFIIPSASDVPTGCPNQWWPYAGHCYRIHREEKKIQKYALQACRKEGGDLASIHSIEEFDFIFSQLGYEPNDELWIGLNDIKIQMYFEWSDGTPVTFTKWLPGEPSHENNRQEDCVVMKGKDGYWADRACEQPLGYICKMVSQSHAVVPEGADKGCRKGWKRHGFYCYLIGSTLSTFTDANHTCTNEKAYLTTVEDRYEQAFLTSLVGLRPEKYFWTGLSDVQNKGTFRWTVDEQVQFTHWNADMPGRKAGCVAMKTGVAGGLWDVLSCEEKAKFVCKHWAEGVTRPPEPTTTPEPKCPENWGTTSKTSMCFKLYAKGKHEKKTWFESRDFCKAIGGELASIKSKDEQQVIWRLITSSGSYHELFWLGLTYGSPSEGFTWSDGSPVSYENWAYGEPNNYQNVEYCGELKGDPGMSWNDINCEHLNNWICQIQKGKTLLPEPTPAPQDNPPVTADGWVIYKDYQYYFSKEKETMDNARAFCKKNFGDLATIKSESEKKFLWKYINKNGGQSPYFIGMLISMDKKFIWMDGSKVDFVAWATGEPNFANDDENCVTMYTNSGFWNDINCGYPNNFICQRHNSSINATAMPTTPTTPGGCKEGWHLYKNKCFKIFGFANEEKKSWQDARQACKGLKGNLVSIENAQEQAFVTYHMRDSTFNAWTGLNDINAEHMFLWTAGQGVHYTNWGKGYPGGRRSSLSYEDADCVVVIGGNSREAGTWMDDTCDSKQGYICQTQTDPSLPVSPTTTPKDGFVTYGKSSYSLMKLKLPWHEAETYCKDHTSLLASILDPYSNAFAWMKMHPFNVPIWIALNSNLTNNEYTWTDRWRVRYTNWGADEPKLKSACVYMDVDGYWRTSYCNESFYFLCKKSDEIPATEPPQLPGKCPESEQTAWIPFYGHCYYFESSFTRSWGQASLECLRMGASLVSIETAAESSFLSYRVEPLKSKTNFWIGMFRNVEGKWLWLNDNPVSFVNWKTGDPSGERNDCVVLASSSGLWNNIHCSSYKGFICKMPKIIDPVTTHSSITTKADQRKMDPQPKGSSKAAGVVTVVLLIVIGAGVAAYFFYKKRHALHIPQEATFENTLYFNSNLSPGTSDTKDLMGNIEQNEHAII
Experimental: Mice were anesthetized and intraperitoneally injected with 5 mL of PBS+1% BSA, the abdomen was massaged to detach macrophages and the peritoneal fluid was collected. This procedure typically yielded 5-9×10⁶ cells. Cells were concentrated to 1 mL in the same peritoneal fluid. For FAM-peptide incubation, the peptides were incubated for 30 minutes at 4° C. For antibody incubation the cells were incubated with antibody for 1 h at 4° C. A647 Rat anti-CCR2 (Biolegend, CA, USA. Catalog number 150603) was incubated for 1 h at 4° C. at a dilution of 1/200. FAM-peptides were incubated at a concentration of 0.5 μg/mL, and Rat anti-CD206 (Bio-Rad, CA, USA. Product code MCA2235GA) was incubated at a concentration of 10 μg/mL. Binding of FAM-peptides was monitored with 488 nm channel and CCR2 labeling was assessed in the 647 nm channel using A647 Anti-CCR2 (Biolegend, CA, USA). After incubation of FAM-Peptides or antibodies, the cells were washed 3 times at 4° C. with PBS-Tby centrifugation at 250 g for 6 minutes, followed by flow cytometry analysis (Accuri, BD Biosciences, CA, USA).
The effect of a blocking anti-CD206 antibody on FAM-UNO binding to peritoneal cells isolated from 4T1 tumor mice was studied. Flow cytometry experiments were performed by incubating FAM-peptide with the cells suspended in the peritoneal fluid; this i.p. fluid also contained glutathione (FIG. 24). […]

[5] = molecular target: T1, recombinant mouse macrophage mannose …; test: fluorescence anisotropy, in solution, kinetic mode

## rat anti-CD206 antibody (Bio-Rad, product code MCA2235GA)
[1]
  reduction of FAM-UNO binding: 25%

## {FAM-Ahx}-CSPGAK (also called linear CSPGAK) [FAM-CSPGAK]
Recombinant mouse CD163
  binding result: no binding (tested: 50 nM FAM peptide, 1 µM protein)
[2]
  binding result: binds

B1: FAM-UNO (cyclic, disulfide-bridged FAM-labeled CSPGAKVRC) (peptide)
peptide: {FAM-Ahx}-CSPGAKVRC
modifications: disulfide 1-9
notes: Cyclic CX7C peptide from a phage library, used as a synthetic FAM-labeled peptide without reduction; also called FAM-labeled UNO
[3]
  binding result: no binding (tested: 100 nM FAM peptide, 0.4 µM protein)
[4]
  binding result: binds

B2: FAM-CPMTDNE (control peptide) (peptide)
peptide: {FAM-Ahx}-CPMTDNE
notes: Control peptide of the fluorescence anisotropy assay
[5]
  binding result: no binding (tested: 50 nM FAM peptide, 1 µM protein)

Reference: US20200268910A1 (SANFORD BURNHAM PREBYS MEDICAL DISCOVERY INSTITUTE, published 2020)
